Protein stability index data for 67 sequences are collected here from the supplement of paper PMC10724198.

± gives the standard deviation of the averaged measurements.

The data set has as its system Saccharomyces cerevisiae. The experiment in a line: protein stability index of tFT-peptide fusion (C-terminal peptide) (PSI (0-1 scale)); higher = more stable (slower turnover). Conditions: temperature: 30 C. The method, then: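 MPS profiling in S. cerevisiae of the yeast C-terminome library: the last 12 aa of each annotated ORF are fused to the C-terminus of a sfGFP-mCherry timer, after a GGGS linker. Cells are FACS-sorted into 8 mCherry/sfGFP bins and deep-sequenced. PSI runs from 0 (unstable) to 1 (stable); wild type and das1Δ backgrounds, two technical replicates each.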

Setting [1] is: genetic background: das1 deletion.

On to RERALKVYKDAM [PHR1 C-terminal 12 aa], for which the protein stability index reads like this: under setting [1], 0.6824 ± 0.004; (genetic background: wild type) 0.657 ± 0.0079.
The matching figures for RFQDGTSVVSIM [SMC2 C-terminal 12 aa]: 0.695 ± 0.011 and 0.6814 ± 0.006.
In the same order, the values of RHISRLSRLLCR [YGR273C C-terminal 12 aa] are 0.6071 ± 0.00082 and 0.621 ± 0.027.
As to RINQDIKKVKLL [EMP46 C-terminal 12 aa], the protein stability index reads like this: under setting [1], 0.6957 ± 0.0047; (genetic background: wild type) 0.145 ± 0.016.
In the case of RKAVDALRSLTN [ACK1 C-terminal 12 aa], the protein stability index came to 0.719 ± 0.051 under setting [1] and 0.722 ± 0.045 (genetic background: wild type).
In the same order, the values of RKVVFERMETLE [MRPS16 C-terminal 12 aa] are 0.6857 ± 0.0044 and 0.683 ± 0.031.
RLGDVLRVCCPS [YFL065C C-terminal 12 aa] showed a protein stability index under setting [1] of 0.627 ± 0.0072 and a protein stability index (genetic background: wild type) of 0.668 ± 0.0092.
In the same order, the values of RLKLDYSLIFPQ [MEI5 C-terminal 12 aa] are 0.7 ± 0.01 and 0.72 ± 0.038.
In the same order, the values of “RLLSLAQPPVNF [YER165C-A C-terminal 12 aa]” are 0.7584 ± 0.0037 and 0.703 ± 0.04.
In the same order, the values of RQCEDTNFGFKI [YDL242W C-terminal 12 aa] are 0.6949 ± 0.0057 and 0.688 ± 0.039.
As to RQEYKFKKSLLT [YKL131W C-terminal 12 aa], the protein stability index stood at 0.679 ± 0.018 under setting [1] and 0.625 ± 0.012 (genetic background: wild type).
In the same order, the values of “RQMTSSFFLVFA [YDR118W-A C-terminal 12 aa]” are 0.51187 ± 0.00022 and 0.508 ± 0.017.
In the same order, the values of RQNTLSLWRYRK [RPL15A C-terminal 12 aa] are 0.682 ± 0.0084 and 0.682 ± 0.039.
For the sequence RQTRNQTKELDS [DPB11 C-terminal 12 aa], the protein stability index under setting [1] was 0.703 ± 0.033 and the protein stability index (genetic background: wild type) turned out to be 0.691 ± 0.037.
RRGDMCDVKENI [PUS7 C-terminal 12 aa]: the protein stability index by setting is: under setting [1], 0.6678 ± 0.0015; (genetic background: wild type) 0.677 ± 0.031.
With RRHYSNEDSSFL [APC9 C-terminal 12 aa], the protein stability index worked out at 0.7169 ± 0.0022 under setting [1] and 0.689 ± 0.036 (genetic background: wild type).
With RRPAVIKALRGE [URE2 C-terminal 12 aa], the protein stability index amounted to 0.6904 ± 0.00095 under setting [1] and 0.693 ± 0.023 (genetic background: wild type).
Sequence RRSKKWYSFIFN [SCO2 C-terminal 12 aa] returned a protein stability index under setting [1] of 0.75 ± 0.018 and a protein stability index (genetic background: wild type) of 0.731 ± 0.098.
The matching figures for “RRTSSISTYLIL [YBL107W-A C-terminal 12 aa]”: 0.735 ± 0.027 and 0.662 ± 0.043.
The matching figures for RRVKSLKTSKKH [PAL2 C-terminal 12 aa]: 0.72 ± 0.017 and 0.686 ± 0.0093.
Regarding RSIKRPELGLRV [STT3 C-terminal 12 aa], the protein stability index is, setting by setting: under setting [1], 0.6814 ± 0.0017; (genetic background: wild type) 0.6862 ± 0.0065.
In the same order, the values of RSLSSRSKECSK [NOC3 C-terminal 12 aa] are 0.71 ± 0.0075 and 0.672 ± 0.045.
For the sequence RSTAQRGGYSAV [ATG27 C-terminal 12 aa], the protein stability index runs as follows: under setting [1], 0.708 ± 0.0086; (genetic background: wild type) 0.679 ± 0.025.
The matching figures for RVDGKIVVTPQI [RPC53 C-terminal 12 aa]: 0.7011 ± 0.0011 and 0.694 ± 0.012.
The matching figures for RVFEFLEKQKRE [MRPL40 C-terminal 12 aa]: 0.722 ± 0.025 and 0.723 ± 0.028.
Turning to RVVDLIEYVAKA [TDH1 C-terminal 12 aa], the protein stability index by setting is: under setting [1], 0.6636 ± 0.0045; (genetic background: wild type) 0.703 ± 0.055.
As for RYAKIHEKHVSA [ASN2 C-terminal 12 aa], the protein stability index runs as follows: under setting [1], 0.7157 ± 0.0026; (genetic background: wild type) 0.7183 ± 0.0066.
For the sequence “RYFCHLFRCSII [YDL022C-A C-terminal 12 aa]”, the protein stability index reads like this: under setting [1], 0.722 ± 0.04; (genetic background: wild type) 0.654 ± 0.021.
The matching figures for SAITKNLLDDFV [RAV1 C-terminal 12 aa]: 0.735 ± 0.05 and 0.745 ± 0.066.
As for SAYMYTKRRFGF [MNR2 C-terminal 12 aa], the protein stability index by setting is: under setting [1], 0.712 ± 0.021; (genetic background: wild type) 0.647 ± 0.017.
SDIFSFLDETYE [PHO92 C-terminal 12 aa] gave a protein stability index under setting [1] of 0.7281 ± 0.007 and a protein stability index (genetic background: wild type) of 0.718 ± 0.02.
In the case of SENRFELAYFTS [YLR317W C-terminal 12 aa], the protein stability index reads like this: under setting [1], 0.728 ± 0.027; (genetic background: wild type) 0.6901 ± 0.0013.
In the case of SEPVKQVLDSKE [NMA2 C-terminal 12 aa], the protein stability index is 0.749 ± 0.039 under setting [1] and 0.728 ± 0.078 (genetic background: wild type).
In the same order, the values of SFERLLVETIYS [ALG13 C-terminal 12 aa] are 0.5878 ± 0.0031 and 0.624 ± 0.01.
In the same order, the values of SFLFGLYLLLHP [SPR2 C-terminal 12 aa] are 0.4995 ± 0.0033 and 0.484 ± 0.014.
For SFSDLTLHAIEY [BER1 C-terminal 12 aa], the protein stability index by setting is: under setting [1], 0.724 ± 0.031; (genetic background: wild type) 0.69 ± 0.019.
SFTDVLGQEQFI [YLR252W C-terminal 12 aa]: the protein stability index under setting [1] was found to be 0.7269 ± 0.0054 and the protein stability index (genetic background: wild type) was 0.699 ± 0.031.
In the same order, the values of SGKFNGKKKSRR [FAF1 C-terminal 12 aa] are 0.693 ± 0.029 and 0.666 ± 0.018.
Turning to SHMILYQQQECY [YER181C C-terminal 12 aa], the protein stability index by setting is: under setting [1], 0.451 ± 0.0097; (genetic background: wild type) 0.46 ± 0.011.
For the sequence SHPSFKQLLIQK [MLO1 C-terminal 12 aa], the protein stability index stood at 0.677 ± 0.031 under setting [1] and 0.73 ± 0.025 (genetic background: wild type).
For “SIFSYCIIYFIS [YDR524C-A C-terminal 12 aa]”, the protein stability index reads like this: under setting [1], 0.222 ± 0.013; (genetic background: wild type) 0.111 ± 0.02.
Take SIICIETNKAIR [HPM1 C-terminal 12 aa]: the protein stability index was 0.705 ± 0.016 under setting [1] and 0.757 ± 0.099 (genetic background: wild type).
The matching figures for SIIFLLLSYLLF [SAG1 C-terminal 12 aa]: 0.392 ± 0.042 and 0.381 ± 0.0067.
The matching figures for SIINPSSNGCNK [YNL235C C-terminal 12 aa]: 0.702 ± 0.028 and 0.615 ± 0.018.
The matching figures for SILGMQDMWKAT [PEX11 C-terminal 12 aa]: 0.707 ± 0.017 and 0.713 ± 0.022.
With SILTHSTSPDSR [HYM1 C-terminal 12 aa], the protein stability index runs as follows: under setting [1], 0.727 ± 0.033; (genetic background: wild type) 0.718 ± 0.076.
The matching figures for SITLDDLENIFN [GDS1 C-terminal 12 aa]: 0.735 ± 0.026 and 0.711 ± 0.021.
Regarding SKSGSGGCCIIS [RAS2 C-terminal 12 aa], the protein stability index is, setting by setting: under setting [1], 0.736 ± 0.0091; (genetic background: wild type) 0.711 ± 0.011.
Consider SLIPRFDNLLSK [GGC1 C-terminal 12 aa], for which the protein stability index stood at 0.7062 ± 0.0052 under setting [1] and 0.732 ± 0.015 (genetic background: wild type).
With SLLLEKLDPEIE [UBX5 C-terminal 12 aa], the protein stability index by setting is: under setting [1], 0.731 ± 0.056; (genetic background: wild type) 0.716 ± 0.013.
The matching figures for “SLNLILISMTFI [YCR097W-A C-terminal 12 aa]”: 0.429 ± 0.0075 and 0.449 ± 0.0049.
As for SLSSRGKIFSST [EFR3 C-terminal 12 aa], the protein stability index is 0.698 ± 0.01 under setting [1] and 0.657 ± 0.011 (genetic background: wild type).
For SNYNNRTTDMPL [PSP2 C-terminal 12 aa], the protein stability index was 0.6781 ± 0.0018 under setting [1] and 0.703 ± 0.1 (genetic background: wild type).
The matching figures for SPFIPKKRKPRS [SEN1 C-terminal 12 aa]: 0.6983 ± 0.0065 and 0.704 ± 0.036.
The matching figures for SPIQLKDLESQI [SYS1 C-terminal 12 aa]: 0.677 ± 0.019 and 0.717 ± 0.0082.
SQAIPKKKKVLE [MEK1 C-terminal 12 aa]: the protein stability index runs as follows: under setting [1], 0.6937 ± 0.0011; (genetic background: wild type) 0.6887 ± 0.0063.
Regarding SQGNVYLPGVAW [NOC4 C-terminal 12 aa], the protein stability index came out at 0.707 ± 0.009 under setting [1] and 0.738 ± 0.081 (genetic background: wild type).
For the sequence SQLLNLLQDLDT [ENV7 C-terminal 12 aa], the protein stability index worked out at 0.696 ± 0.02 under setting [1] and 0.722 ± 0.011 (genetic background: wild type).
In the same order, the values of SRFRTNIAFITQ [YJL015C C-terminal 12 aa] are 0.71 ± 0.012 and 0.70081 ± 0.00066.
The matching figures for SRGHDLASEYPL [ERS1 C-terminal 12 aa]: 0.706 ± 0.015 and 0.682 ± 0.0085.
Consider SRLFSEEKSSVH [YJL150W C-terminal 12 aa], for which the protein stability index by setting is: under setting [1], 0.7239 ± 0.0066; (genetic background: wild type) 0.694 ± 0.024.
In the case of SRQFEQNLQIND [SLF1 C-terminal 12 aa], the protein stability index is, setting by setting: under setting [1], 0.7394 ± 0.0052; (genetic background: wild type) 0.676 ± 0.013.
The matching figures for SRSGPDSTNIKL [MPP10 C-terminal 12 aa]: 0.688 ± 0.011 and 0.667 ± 0.0034.
For the sequence SSIFVRVYKFWC [BAP3 C-terminal 12 aa], the protein stability index reads like this: under setting [1], 0.698 ± 0.018; (genetic background: wild type) 0.716 ± 0.096.
Consider SSNFASNIFSLF [YBR089W C-terminal 12 aa], for which the protein stability index under setting [1] is 0.7346 ± 0.0049 and the protein stability index (genetic background: wild type) was 0.448 ± 0.01.
The matching figures for SSQQLTLRPPLG [YGL109W C-terminal 12 aa]: 0.6922 ± 0.0068 and 0.669 ± 0.0086.
Turning to “SSSSNFLEESSS [YER148W-A C-terminal 12 aa]”, the protein stability index under setting [1] is 0.7024 ± 0.00079 and the protein stability index (genetic background: wild type) came out at 0.6861 ± 0.006.
